The test concerns the target T1, CXCR4 receptor (Homo sapiens, UniProt P61073).
T1 construct: incubation of THP-1 cells with SDF-1; endogenous in cells; host or cells: THP-1 cells
The experiment in a line: [Ca2+]i mobilization in fura-2,AM loaded THP-1 cells (FIG. 5, Table 6). In kind it is cell-based. Conditions: 1×10^6/ml. On the procedure: Fura-2,AM loaded THP-1 cells (1×10^6/ml) were stimulated with SDF-1, Compound A or Compound K at the concentrations indicated. The values represent the mean ± one S.D. of n=3 experiments.
Fura-2,AM loaded THP-1 cells (1×10^6/ml) were stimulated with native SDF-1 and the SDF-1 peptide analogs at the concentration of native SDF-1 concentration that gave the maximum [Ca^2+]1 stimulation (1 μM). The values represent the mean ± one S.D. of n=3 experiments.
This example illustrates the efficacy of SDF-1 and SDF-1 peptide analogs in mediating intracellular calcium mobilization ([Ca^2+]i). To illustrate that the binding of SDF-1 and SDF-1 peptide analogs results in the agonistic induction of the CXCR4 receptor, [Ca^2+]i mobilization assays were conducted, the results of which are shown in FIG. 5. To obtain the data shown in FIG. 5, fura-2,AM loaded THP-1 cells (1×10^6/ml) were stimulated with Compound A/SDF-1, SDF-1(1-14)-(G)4-SDF-1(55-67) Lys20/Glu24-cyclic amide (SEQ ID NO:809) or Compound K/SDF-1(1-14)-(G)4-SDF-1(55-67)-Glu24/Lys28-cyclic amide (SEQ ID NO:803) at the concentrations indicated (the values represent the mean ± one S.D. of n=3 experiments). […]

Consider one substance from patent US20050059584A1, “Novel chemokine mimetics synthesis and their use” (priority 2002, published 2005).

Positions of bridges follow the written chain, without caps; N, C: chain ends.

T1 sequence (P61073 whole entry): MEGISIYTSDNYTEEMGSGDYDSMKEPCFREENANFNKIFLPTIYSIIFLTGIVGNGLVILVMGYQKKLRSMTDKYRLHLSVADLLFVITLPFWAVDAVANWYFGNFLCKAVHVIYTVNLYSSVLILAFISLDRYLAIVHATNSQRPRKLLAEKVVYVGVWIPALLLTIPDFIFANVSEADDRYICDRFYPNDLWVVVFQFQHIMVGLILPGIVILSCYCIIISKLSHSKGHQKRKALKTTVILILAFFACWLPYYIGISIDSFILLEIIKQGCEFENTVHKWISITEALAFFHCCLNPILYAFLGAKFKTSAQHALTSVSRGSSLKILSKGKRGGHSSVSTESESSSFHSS

Regarding “H2N-Lys-Pro-Val-Ser-Leu-Ser-Tyr-Arg-Cys-Pro-Cys-Arg-Phe-Phe-[Gly-Gly-Gly-Gly]-Leu-Lys-Trp-Ile-Gln-Glu-Tyr-Leu-Glu-Lys-Ala-Leu-Asn-NH2 (H-KPVSLSYRCPCRFFGGGGLKWIQEYLEKALN-NH2; lactam 20-24; cysteine pairing not given here) [Compound A]”, it took 0.148 µM to reach a half-maximal effect (EC50).
